# Ends that are not written are not given here. Peptide text beside a SMILES is read from it. * marks the point of attachment. Biotin = O=C1N[C@H]2[C@H](CS[C@H]2CCCCC(=O)*)N1
# B1: N-term-S-tag-Kringle 5 (ligand, human, UniProt P00747 481-560, looked up, not shown: small tags and cut ends)
# chain: CMFGNGKGYRGKRATTVTGTPCQDWAAQEPHRHSIFTPETNPRAGLEKNYCRNPDGDVGGPWCYTTNPRKLYDYCDVPQC
# Experiments:
# [1] = molecular target: HMVEC (Homo sapiens, UniProt P11021); assay: VEGF-stimulated HMVEC migration (Boyden chamber); format: cell-based; conditions: for IC50: read-out: IC50 values, inhibition of VEGF stimulation HMVEC migration, 3 ng/ml VEGF, 4 hours at 37° C., 48 well Boyden chamber; for inhibition of migration of activated endothelial cells (in words): compared to rK5
# Protocol: Endothelial cell migration assays: The effect of rK5 on endothelial cell migration was determined by two different methods. The first assay was performed in a 96 well plate with a cellulose membrane between the upper and lower chambers. HMVEC were starved of growth factors overnight, labeled with fluorescent calcein AM (50-100 nM), plated into a 96 well migration chamber (2.9×10^4/well) (Neuroprobe, Gaitherburg, Md.), and stimulated to migrate with VEGF (5 ng/mL). After 4 h, migrated cells were measured by fluorescence (Frevert C W, Wong V A, Goodman R B, Goodwin R, Martin T R. Rapid fluorescence-based measurement of neutrophil migration in vitro. J Immunol Methods. 1998 Apr. 1;213(1):41-52). In a second assay for cellular migration, a standard Boyden chamber was used (Polyerini, P. J., Bouck, N. P. & Rastinejad, F. Assay and purification of naturally occurring inhibitor of angiogenesis. Meth. Enzymol. 198, 440-450 (1991)). HMVEC cells were starved overnight in DME containing 0.1% bovine serum albumin (BSA) and harvested by scraping and resuspended in DME with 0.1% BSA at 1.5×10^6 cells per ml. Cells were added to the bottom of a 48-well, Boyden chamber. The chamber was assembled and inverted, and cells were allowed to attach for 2 hours at 37° C. to polycarbonate chemotaxis membranes (5 μm pore size) that had been soaked in 0.1% gelatin overnight and dried. The chamber was re-inverted, test substances, including activators were added to the wells of the upper chamber and the apparatus was incubated for 4 hours at 37° C. Growth factors were used, where indicated, at concentrations determined in preliminary experiments to give equivalent migration responses of about 100 cells migrated/high powered field (400×). […] Membranes were recovered, fixed and stained and the number of cells that had migrated to the upper chamber per 10 high power fields counted. Background migration to DME+0.1% BSA was subtracted and the data reported as the number of cells migrated per 10 high power fields (400×) or, when results from multiple experiments were combined, as the percent inhibition of migration compared to the positive growth factor control (Polyerini, P. J., Bouck, N. P. & Rastinejad, F. Assay and purification of naturally occurring inhibitor of angiogenesis. Meth. Enzymol. 198, 440-450 (1991)).
# [2] = molecular target: T1, GRP78 (bovine brain) (Bos taurus, UniProt Q0VCX2); assay: Ultracentrifugation binding of I125rK5(dog) with GRP78; conditions: 1 nM I125rK5(dog) + 1.5 nM GRP78; peptides 100 nM, rK5 1 nM
# T1 construct: from tissue; host or cells: bovine brain
# Protocol: Ultra centrifugation with 50,000 MW cut off filters was used with iodinated recombinant dog K5 (I^125rKS(dog)) and GRP78 (bovine brain). The GRP78 and I^125rK5 (dog) were incubated for 1 hour at room temperature. The solution was then transferred to ultracentrifuges and spun at 10,000×g for 2 min. The top chamber contained GRP78 (mw 78,000) and I^125rK5 (dog) that bound. The top and bottom solutions were counted for I125. Column A: 1 nM I^125rK5(dog). Column B: 1 nM I^125rK5 (dog)+1.5 nM GRP78. Column C: 1 nM I^125rK5(dog)+1.5 nM GRP78+100 nM N-terminal K5 peptide, LLPDVETPSEED. Column D: 1 nM I^125rK5(dog)+1.5 nM GRP78±100 nM active site K5 peptide PRKLYDY. Column E: 1 nM I^125rK5(dog)+1.5 nM GRP78+1 nM rK5 (unlabeled). The GRP78 bound to the labeled rK5 causing its retention on the top of the filter.
# [3] = test system: EAHY cell surface proteins (~75 kDa and ~95 kDa); assay: S-tag-K5 affinity pull-down of biotinylated EAHY surface proteins; format: binding; conditions: 100 nM S-tag-K5; 1 μM peptides, 10 μM cold rK5
# Protocol: The second method used to identify cell surface rK5 binding proteins was described previously (Zhang, J. C., et al, supra). Surface proteins on 4×10^6 EaHy cells were labeled with NHS-biotin. The cells were washed and lysed (M-Per, Pierce). Cell lysates were mixed with S-tag K5 for 1 hour at room temperature. S-tag K5 bound proteins were precipitated with S-protein agarose (Pierce). Bound proteins were eluted with excess rK5 or with excess PRKLYDY (SEQ ID NO:1) peptide. Eluted proteins were visualized with avidin-HRP and a chemiluminescent substrate. Mass spectroscopic analysis was used to identify the major protein bands.
# In particular, surface proteins on 1×10^6 EAHY cells were labeled with NHS-biotin. The cells were washed 3× with PBS and lysed with M-pur. Cell lysates were mixed with (A) 100 nM S-tag-K5, (B) 100 nM S-tag-K5 plus 1 μM PRKLYDY, (C) 100 nM S-tag-K5 plus 10 μM cold rK5 and (D) 100 nM S-tag-K5 and N-terminal K5 peptide at 1 μM for 1 hour at room temperature. The K5 binding proteins were precipitated with S-protein-agarose. Bound proteins were eluted with 50 mM glycine buffer at pH 3.0 and run for PAGE analysis. Surface proteins (biotinylated) that bind K5 were visualized with avidin-HPR and a chemiluminescent substrate.
# [4] = test system: HMVECs; assay: Competition of 3HK5 binding to endothelial cells; design: species or system human; conditions: 2 nM 3HK5; rK5(K82A) up to 500 nM
# Protocol: Each K5 peptide or a N-terminal antibody to GRP78 was added to HMVECs at various concentrations for 1 hour at room temperature. Cells were washed and the amount of ^3HK5 bound was counted.
# Binding of human ^125IrK5 to Endothelial Cells: Tritium-labeled rK5 was added to monolayers of 50,000 HMVEC cells that were either starved or stimulated for 16 hours by 15 ng/ml bFGF and 5 ng/ml VEGF in 96 well plates. The number of counts remaining bound to the cells after extensive washing determined total amount of rK5 bound (Dudani A K, Ganz P R. Endothelial cell surface actin serves as a binding site for plasminogen, tissue plasminogen activator and lipoprotein(a). Br J Haematol. 1996 October; 95(1): 168-78). Binding of ^125IK5 (dog) to Endothelial Cells and rK5 to Recombinant GRP78: The same methods as described above for the expression and purification of human K5 were used to express dog rK5 in E. coli. ^125IK5 (dog) was added to the wells and incubated at room temperature for 1 hour. After 1 hour the cells were washed and lysed with M-Per (Pierce, Racine, Wis.) and the amount of ^125IK5 (dog) bound was counted. Scatchard plot analysis was performed using Prism (GraphPad Software, Inc., San Diego, Calif.) software. Competition binding against 5 nM ^125IK5 (dog) was tested using a monoclonal antibody against GRP78 (N-20, Santa Cruz, Calif.) or a monoclonal antibody against K5 (Green Mountain Antibodies, Burlington, Vt.). The antibodies were added to HMVECs at various concentrations for 1 hour at room temperature. Cells were washed and the amount of bound ^125IK5 (dog) bound was counted. Competition binding was also tested against 2 nM 3HK5. K5 peptides or a c-terminal antibody to GRP78 (A-129, Santa Cruz, Calif.) were added to HMVECs at various concentrations for 1 hour at room temperature. Cells were washed, lysed and the amount of ^3HK5 bound was estimated by scintillation counting.
# [5] = molecular target: GRP78 on the surface of human cells (EAHY, HMVEC, HT1080) (human, UniProt P11021 19-654); assay: cell-based or functional assay
# Chain of GRP78 on the surface of human cells (EAHY, HMVEC, HT1080) (P11021 19-654): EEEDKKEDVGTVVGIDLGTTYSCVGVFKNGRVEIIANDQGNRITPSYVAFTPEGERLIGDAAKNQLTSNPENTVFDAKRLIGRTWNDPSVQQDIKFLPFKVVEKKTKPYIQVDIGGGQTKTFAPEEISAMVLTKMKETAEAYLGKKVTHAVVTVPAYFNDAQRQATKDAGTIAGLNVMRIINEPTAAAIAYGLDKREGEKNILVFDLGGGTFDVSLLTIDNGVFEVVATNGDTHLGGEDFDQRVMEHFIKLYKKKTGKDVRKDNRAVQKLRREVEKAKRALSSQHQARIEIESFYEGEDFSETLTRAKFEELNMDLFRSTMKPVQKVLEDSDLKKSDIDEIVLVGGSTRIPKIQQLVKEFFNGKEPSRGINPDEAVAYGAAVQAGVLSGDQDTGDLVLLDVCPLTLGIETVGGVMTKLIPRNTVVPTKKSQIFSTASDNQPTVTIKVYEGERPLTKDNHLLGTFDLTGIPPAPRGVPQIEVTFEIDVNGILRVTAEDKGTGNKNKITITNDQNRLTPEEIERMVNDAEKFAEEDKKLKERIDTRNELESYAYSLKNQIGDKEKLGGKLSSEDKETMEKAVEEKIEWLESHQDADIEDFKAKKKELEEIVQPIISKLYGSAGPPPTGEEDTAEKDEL
# Chain of HMVEC (P11021 19-654): as above
# T1 sequence (Q0VCX2 20-655): as the sequence (P11021 19-654) above, with I114V, G626S, D629E, T630A, E632D counted along it
molecule,measurement,setting,value
Ac-QDWAAQEPHRHSIFTPETNPRAGLEKNY-NH2,IC50,[1],> 1000 nM
Ac-MFGNGKGYRGKRATTVTGTP-NH2,IC50,[1],> 1000 nM
N-term-S-tag-Kringle 5: S-protein tagged rK5 used as probe for isolation of the cell surface receptor,inhibition of migration of activated endothelial cells (in words),[1],similarly active
Ac-VLLPDVETPSEED-NH2 [Ac-VLLPDVETPSEED-NH2],IC50,[1],> 1000 nM
CC(=O)N[C@@H](CC(C)C)C(=O)N[C@@H](Cc1ccc(O)cc1)C(=O)N[C@@H](CC(=O)O)C(=O)N[C@@H](Cc1ccc(O)cc1)C(N)=O [Ac-LYDY-NH2] (Ac-LYDY-NH2),IC50,[1],> 1000 nM
KLYD (listed as Homo sapiens),inhibition of migration of activated endothelial cells (in words),[1],equally potent compared to rK5
CC(C)C[C@H](NC(=O)[C@H](CCCCN)NC(=O)[C@H](CCCNC(=N)N)NC(=O)[C@@H]1CCCN1C(=O)CCCC[C@@H]1SC[C@@H]2NC(=O)N[C@@H]21)C(=O)N[C@@H](Cc1ccc(O)cc1)C(=O)N[C@@H](CC(=O)O)C(=O)N[C@@H](Cc1ccc(O)cc1)C(=O)O [Biotin-PRKLYDY] (Biotin-PRKLYDY-OH),inhibition of migration of activated endothelial cells (in words),[1],similarly active
CC(=O)N[C@@H](CC(=O)O)C(=O)N[C@H](C(=O)N1CCC[C@H]1C(=O)N[C@@H](CCC(N)=O)C(N)=O)C(C)C [Ac-DVPQ-NH2] (Ac-DVPQ-NH2),IC50,[1],> 1000 nM
PRKLYDY (listed as Homo sapiens),inhibition of I125rK5(dog) binding to GRP78,[2],inhibited
same,inhibition of migration of activated endothelial cells (in words),[1],equally potent compared to rK5
same,competition of protein binding to the S-tag K5 column,[3],competed
same,blocking of 3HK5 binding to endothelial cells,[4],blocked
Ac-KLYDY-NH2 [Ac-KLYDY-NH2],inhibition of migration of activated endothelial cells (in words),[1],equally potent compared to rK5
LLPDVETPSEED (listed as Homo sapiens),inhibition of I125rK5(dog) binding to GRP78,[2],not
same,competition of protein binding to the S-tag K5 column,[3],did not inhibit
same,blocking of 3HK5 binding to endothelial cells,[4],not
Ac-LYDY-NH2 [Ac-LYDY-NH2],"IC50, inhibition of VEGF stimulated HMVEC migration",[5],> 1000 nM
Biotin-PRKLYDY [N-terminally biotinylated PRKLYDY peptide],"IC50, inhibition of VEGF stimulated HMVEC migration",[5],0.23 nM
B1,"IC50, inhibition of VEGF stimulated HMVEC migration",[5],0.2 nM
Ac-VLLPDVETPSEED-NH2 [Ac-VLLPDVETPSEED-NH2],"IC50, inhibition of VEGF stimulated HMVEC migration",[5],> 1000 nM
Ac-MFGNGKGYRGKRATTVTGTP-NH2 [Ac-MFGNGKGYRGKRATTVTGTP-NH2],"IC50, inhibition of VEGF stimulated HMVEC migration",[5],> 1000 nM
Ac-QDWAAQEPHRHSIFTPETNPRAGLEKNY-NH2 [Ac-QDWAAQEPHRHSIFTPETNPRAGLEKNY-NH2],"IC50, inhibition of VEGF stimulated HMVEC migration",[5],> 1000 nM
Ac-RNPDGDVGGPW-NH2 [Ac-RNPDGDVGGPW-NH2],"IC50, inhibition of VEGF stimulated HMVEC migration",[5],0.5 nM
Ac-YTTNPRKLYDY-NH2 [Ac-YTTNPRKLYDY-HN2],"IC50, inhibition of VEGF stimulated HMVEC migration",[5],0.2 nM
Ac-DVPQ-NH2 [Ac-DVPQ-NH2],"IC50, inhibition of VEGF stimulated HMVEC migration",[5],> 1000 nM
Ac-RKLYDY-NH2 [Ac-RKLYDY-NH2],"IC50, inhibition of VEGF stimulated HMVEC migration",[5],0.12 nM
Ac-KLYDY-NH2 [Ac-KLYDY-NH2],"IC50, inhibition of VEGF stimulated HMVEC migration",[5],0.1 nM
